Measured values reported in patent US20210386875.

Biological target: T1, [^125I]LS370
T1 chain: XYXDEVDGKGC

B1: Caspase-3 (Cal Biochem) (protein)
chain: SGISLDNSYKMDYPEMGLCIIINNKNFHKSTGMTSRSGTDVDAANLRETFRNLKYEVRNKNDLTREEIVELMRDVSKEDHSKRSSFVCVLLSHGEEGIIFGTNGPVDLKKITNFFRGDRCRSLTGKPKLFIIQACRGTELDCGIETDSGVDDDMACHKIPVEADFLYAYSTAPGYYSWRNSKDGSWFIQSLCAMLKQYADKLEFMHILTRVNRKVATEFESFSFDATFHAKKQIPCIVSMLTKELYFYH
For B1, the “hydrolysis by caspase-3 (radiochromatogram)” value was “[^125I]LS370 eluted at 19.5 min, and in the presence of caspase-3, the cleaved fragments eluted at 12.5 and 13 min” and the kcat (kinetic analysis of hydrolysis, radio-HPLC) was 1.02 s⁻¹.
